Substrate in data set [1]: NC(=O)c1ccc[n+]([C@@H]2O[C@H](COP(=O)(O)OP(=O)(O)OC[C@H]3O[C@@H](n4cnc5c(N)ncnc54)[C@H](O)[C@@H]3O)[C@@H](O)[C@H]2O)c1
In words: cells, lysate or membranes. The settings on record: 600 μM P5C/γGS (saturating), 0.01-2.5 mM NAD+, potassium phosphate pH 7.2, 28°C, crude homogenate, varied: cofactor.

Substrate in data set [2]: O=C(O)C1CCC=N1
In words: cells, lysate or membranes. The conditions noted are these: 1 mM NAD+ (saturating), 20-600 μM P5C/γGS, potassium phosphate pH 7.2, 28°C, racemic substrate in equilibrium with open form, crude homogenate.

What is called Km is the substrate concentration at which the rate is half of its maximum.

B1: TbP5CDH (Trypanosoma brucei brucei TREU927) (protein)
chain: PPAVNERMDSFQPGSDSARGTLEACKRLRCGATDCPIVIGGKEYRTDNAINRMIPSSHQQQVAKGYNATPELAQKAIDTALGAAKEWSQMPFKDRAAIFLHAAHLISTKYRHELRAATMLGQSKNPFQAEIDVIAESCDFLRFSVKYAEELYNQQPISPASGPVWNALDYRPLEGFVSVIAPFNFSAIAANLVACPALMGNVILWKPSPNAVLSNYLLYKVFEEAGLPAGVVNFMPCEPKVMTEVVNSHPELAGVAFTGSTNVFLSINKQIYSRLEEYRNIPRISGETGGKDFHLIHPTADMKMTAALTVRGAFEYQGQKCSATSRIYVPQSRWEELKGYLLELHGKLKMGQPDDFQSFMCAVIDETAFDRNKKYIDIAKADSSAYTIIAGGGCDKSEGWFIQPTIIVAKDPNAQLLREEIFGPILTVHVYDDSKPDFWSEACNLVNNATKYALTGSIFAQDRKAIRDATEKHLRYAAGNYYINDKCTGAVVGQQPFGGARASGSNDKPGSALFLTRWVSARTIKENFDHSAQVSYPHQLPDYVTL
Take B1: the results for the Km in data set [1] and in data set [2] were 0.38 ± 0.04 mM and 92.7 ± 14 µM, respectively.

For the origin of these results see publication PMC5289646, “Proline Metabolism is Essential for Trypanosoma brucei brucei Survival in the Tsetse Vector” (PLoS Pathogens, 2017).
